Experiment [1] has as its target T1, biotinylated avi-tagged SARS-CoV-2 (Wuhan) receptor binding domain (RBD) (SARS-CoV-2 (Wuhan strain), UniProt P0DTC2 319-541). Kind of experiment: BLI.
The target in experiment [2] is T1, biotinylated avi-tagged SARS-CoV-2 …. Kind of experiment: BLI. This is another data set of the same source.

B1: THSC20.HVTR26 (IgG) (antibody, V domains shown)
VH: EVQLVESGGGLVQPGGSLRLSCAASGFTVSSNYMSWVRQAPGKGLEWVSAIYSGDSTYYADSVKGRFTISRHNPKNTLYLQMNSLRAEDTAVYYCARLVGALTNIVVSGDGGAFDIWGQGTMVTVSS
VL: SYELTQPASVSGSPGQSITISCTGTSSDVGSYNLVSWYQQHPGKAPKLMIYEVSKRPSGVSNRFSGSKSGNTASLTISGLQAEDEVDYYCCSYAGSSTWVFGGGTKLTVL
In the case of B1, the koff in experiment [1] is 0.000131 s⁻¹. Besides, in experiment [2], binding was characterised by a dissociation constant (Kd) of 0.255 nM.

B2: THSC20.HVTR04 (IgG) (antibody, V domains shown)
VH: QVQLVESGGGVVQPGRSLRLSCAASGFTFSNYAIHWVRQAPGKGLEWVAVVSYDGSNKYYAESVKGRFTISRDNSKNTLSLQMISLRPEDTAVYYCASVADTAMVPEWYFDLWGQGTMVTVSS
VL: QSVLTQPRSVSGSPGQSVTISCTGTSSDVGAYNYVSWYQQHPGKAPKLMIYDVSARPSGVPDRFSGSKSGNTASLTISGLQAEDEADYYCCSYAGSWVFGGGTKLTVL
For the molecule B2, the koff in experiment [1] turned out to be 9.15e-05 s⁻¹.

These data come from PMC9089897 (2022).
